Data as given in the RNAGym collection of RNA variant scans (doi:10.1021/acssynbio.7b00057).

B1: Pistol ribozyme (parent)
chain: GGGUCGUUGUUCCAUAAUCGCGUGGAUAUGGCACGCAAGUUUCUACCGGGCACCGUAAAUGUCCGACUGGAGCCGUUCGGGCGGCUAUAAACAGACCUCAGGCCCGAAGCGUGGCGGCACCUGCCGCCGGUGGUAAAAAAGAUCGGAAGAGCACACGUCU

Variants of: B1
Test: aptazyme ON/OFF ratio, guanine; higher = stronger switching; co-transcriptional cleavage with and without guanine

**Q.** For U7C U8G U10C U11C C12U C13U, which “aptazyme ON/OFF ratio” value is on record?
**A.** Its value is 1.1.

**Q.** For U7C U8G U10C U11C C12U C13A, which “aptazyme ON/OFF ratio” value is on record?
**A.** Its value is 1.04.

**Q.** For U7C U8G U10C U11C C12A C13G, which “aptazyme ON/OFF ratio” value is on record?
**A.** The value was 1.14.

**Q.** For U7C U8G U10C U11C C12A C13A, which “aptazyme ON/OFF ratio” value is on record?
**A.** Its value is 1.16.

**Q.** For U7C U8G U10C U11C C12A C13U, which “aptazyme ON/OFF ratio” value is on record?
**A.** Its value is 1.15.

**Q.** For U7C U10C U11G C12G, which “aptazyme ON/OFF ratio” value is on record?
**A.** Its value is 1.3.

**Q.** Which “aptazyme ON/OFF ratio” value does the source give for U7C U10C U11G C12A here?
**A.** The value was 1.35.

**Q.** For U7C U10C U11G C12U, which “aptazyme ON/OFF ratio” value is on record?
**A.** The value was 1.18.

**Q.** Which “aptazyme ON/OFF ratio” value does the source give for U7C U10A U11G C13G here?
**A.** Its value is 1.17.

**Q.** For U7C U10A U11G C13A, which “aptazyme ON/OFF ratio” value is on record?
**A.** Its value is 1.24.

**Q.** With U7C U10A U11G C13U as the variant, how does the “aptazyme ON/OFF ratio” value read?
**A.** Its value is 1.28.

**Q.** With U7C U10C U11G as the variant, how does the “aptazyme ON/OFF ratio” value read?
**A.** Its value is 1.21.

**Q.** With U7C U10C U11A as the variant, how does the “aptazyme ON/OFF ratio” value read?
**A.** The value was 2.11.

**Q.** With U7C U10C U11C as the variant, how does the “aptazyme ON/OFF ratio” value read?
**A.** Its value is 1.74.

**Q.** Which “aptazyme ON/OFF ratio” value does the source give for U7C U8G U11A C12G C13A here?
**A.** The value was 1.11.

**Q.** Which “aptazyme ON/OFF ratio” value does the source give for U7C U8G U11A C12G C13U here?
**A.** Its value is 1.09.

**Q.** Which “aptazyme ON/OFF ratio” value does the source give for U7C U8G U11A C12G C13G here?
**A.** The value was 1.11.

**Q.** With U7C U8G U11C C12G as the variant, how does the “aptazyme ON/OFF ratio” value read?
**A.** Its value is 1.3.

**Q.** For U7C U8G U11C C12U, which “aptazyme ON/OFF ratio” value is on record?
**A.** The value was 1.28.

**Q.** With U7C U8G U11C C12A as the variant, how does the “aptazyme ON/OFF ratio” value read?
**A.** The value was 1.35.

**Q.** With U7C U10G U11G C12G as the variant, how does the “aptazyme ON/OFF ratio” value read?
**A.** The value was 1.22.

**Q.** With U7C U10G U11G C12A as the variant, how does the “aptazyme ON/OFF ratio” value read?
**A.** Its value is 1.2.

**Q.** For U7C U8G U11A C12U C13U, which “aptazyme ON/OFF ratio” value is on record?
**A.** The value was 1.12.

**Q.** Which “aptazyme ON/OFF ratio” value does the source give for U7C U8G U11A C12U C13G here?
**A.** The value was 1.09.

**Q.** For U7C U8G U11A C12U C13A, which “aptazyme ON/OFF ratio” value is on record?
**A.** The value was 1.09.

**Q.** For U7C U8G U10G C12G C13U, which “aptazyme ON/OFF ratio” value is on record?
**A.** The value was 1.29.

**Q.** With U7C U8G U10G C12G C13G as the variant, how does the “aptazyme ON/OFF ratio” value read?
**A.** Its value is 1.14.

**Q.** With U7C U8G U10G C12G C13A as the variant, how does the “aptazyme ON/OFF ratio” value read?
**A.** The value was 1.11.

**Q.** For U7C U8G U11A C12G, which “aptazyme ON/OFF ratio” value is on record?
**A.** The value was 1.1.

**Q.** With U7C U8G U11A C12A as the variant, how does the “aptazyme ON/OFF ratio” value read?
**A.** Its value is 1.14.

**Q.** Which “aptazyme ON/OFF ratio” value does the source give for U7C U8G U11A C12U here?
**A.** Its value is 1.15.

**Q.** With U7C U10C U11A C12A C13G as the variant, how does the “aptazyme ON/OFF ratio” value read?
**A.** Its value is 1.26.

**Q.** Which “aptazyme ON/OFF ratio” value does the source give for U7C U10C U11A C12A C13U here?
**A.** The value was 1.3.

**Q.** Which “aptazyme ON/OFF ratio” value does the source give for U7C U10C U11A C12A C13A here?
**A.** The value was 1.49.

**Q.** With U7C U10G U11G C12G C13A as the variant, how does the “aptazyme ON/OFF ratio” value read?
**A.** The value was 1.1.

**Q.** For U7C U8G U10G U11C C12U C13U, which “aptazyme ON/OFF ratio” value is on record?
**A.** The value was 1.37.

**Q.** Which “aptazyme ON/OFF ratio” value does the source give for U7C U8G U10G U11C C12U C13A here?
**A.** The value was 1.33.

**Q.** Which “aptazyme ON/OFF ratio” value does the source give for U7C U8G U10G U11C C12U C13G here?
**A.** The value was 1.21.

**Q.** For U7C U8G U10G U11C C12G C13A, which “aptazyme ON/OFF ratio” value is on record?
**A.** Its value is 1.16.

**Q.** For U7C U8G U10G U11C C12G C13U, which “aptazyme ON/OFF ratio” value is on record?
**A.** The value was 1.26.

**Q.** With U7C U8G U10G U11C C12G C13G as the variant, how does the “aptazyme ON/OFF ratio” value read?
**A.** The value was 1.18.

**Q.** Which “aptazyme ON/OFF ratio” value does the source give for U7C U8G U10C U11C C12G C13U here?
**A.** The value was 1.24.

**Q.** For U7C U8G U10C U11C C12G C13G, which “aptazyme ON/OFF ratio” value is on record?
**A.** The value was 1.13.

**Q.** Which “aptazyme ON/OFF ratio” value does the source give for U7C U8G U10C U11C C12G C13A here?
**A.** The value was 1.14.

**Q.** Which “aptazyme ON/OFF ratio” value does the source give for U7C U8G U10G C13G here?
**A.** The value was 1.29.

**Q.** With U7C U8G U10G C13U as the variant, how does the “aptazyme ON/OFF ratio” value read?
**A.** The value was 1.35.

**Q.** For U7C U8G U10G C13A, which “aptazyme ON/OFF ratio” value is on record?
**A.** Its value is 1.4.

**Q.** With U7C U10C U11A C12U C13U as the variant, how does the “aptazyme ON/OFF ratio” value read?
**A.** Its value is 1.22.

**Q.** With U7C U10C U11A C12U C13G as the variant, how does the “aptazyme ON/OFF ratio” value read?
**A.** Its value is 1.32.

**Q.** With U7C U10C U11A C12U C13A as the variant, how does the “aptazyme ON/OFF ratio” value read?
**A.** Its value is 1.28.

**Q.** With U7C U10G C12G C13U as the variant, how does the “aptazyme ON/OFF ratio” value read?
**A.** Its value is 1.18.

**Q.** For U7C U10G C12G C13A, which “aptazyme ON/OFF ratio” value is on record?
**A.** Its value is 1.17.

**Q.** With U7C U10G C12G C13G as the variant, how does the “aptazyme ON/OFF ratio” value read?
**A.** The value was 1.13.

**Q.** Which “aptazyme ON/OFF ratio” value does the source give for U7C U10C U11G C13G here?
**A.** The value was 1.17.

**Q.** For U7C U10C U11G C13U, which “aptazyme ON/OFF ratio” value is on record?
**A.** The value was 1.74.

**Q.** With U7C U10C U11G C13A as the variant, how does the “aptazyme ON/OFF ratio” value read?
**A.** Its value is 0.947.

**Q.** For U7C U8G U11G C12A C13G, which “aptazyme ON/OFF ratio” value is on record?
**A.** The value was 1.08.

**Q.** With U7C U8G U11G C12A C13U as the variant, how does the “aptazyme ON/OFF ratio” value read?
**A.** Its value is 1.18.

**Q.** Which “aptazyme ON/OFF ratio” value does the source give for U7C U8G U11G C12A C13A here?
**A.** Its value is 1.1.

**Q.** Which “aptazyme ON/OFF ratio” value does the source give for U7C U8G U11C C12G C13U here?
**A.** Its value is 1.17.

**Q.** Which “aptazyme ON/OFF ratio” value does the source give for U7C U8G U11C C12G C13A here?
**A.** Its value is 1.15.

**Q.** Which “aptazyme ON/OFF ratio” value does the source give for U7C U8G U11C C12G C13G here?
**A.** The value was 1.17.

**Q.** Which “aptazyme ON/OFF ratio” value does the source give for U7C U8G U11A C12A C13G here?
**A.** Its value is 1.07.

**Q.** For U7C U8G U11A C12A C13A, which “aptazyme ON/OFF ratio” value is on record?
**A.** The value was 1.09.

**Q.** For U7C U8G U11A C12A C13U, which “aptazyme ON/OFF ratio” value is on record?
**A.** Its value is 1.13.

**Q.** With U7C U8G U10G U11G C12A C13G as the variant, how does the “aptazyme ON/OFF ratio” value read?
**A.** Its value is 1.19.

**Q.** With U7C U8G U10G U11G C12A C13A as the variant, how does the “aptazyme ON/OFF ratio” value read?
**A.** Its value is 1.11.

**Q.** For U7C U8G U10G U11G C12A C13U, which “aptazyme ON/OFF ratio” value is on record?
**A.** The value was 1.26.

**Q.** With U7C U8G U11C C12U C13A as the variant, how does the “aptazyme ON/OFF ratio” value read?
**A.** Its value is 1.35.

**Q.** With U7C U8G U11C C12U C13U as the variant, how does the “aptazyme ON/OFF ratio” value read?
**A.** Its value is 1.35.

**Q.** Which “aptazyme ON/OFF ratio” value does the source give for U7C U8G U11C C12U C13G here?
**A.** Its value is 1.19.

**Q.** With U7C U8G U10G U11A as the variant, how does the “aptazyme ON/OFF ratio” value read?
**A.** The value was 1.17.

**Q.** Which “aptazyme ON/OFF ratio” value does the source give for U7C U8G U10G U11C here?
**A.** Its value is 1.09.

**Q.** With U7C U8G U10G U11G as the variant, how does the “aptazyme ON/OFF ratio” value read?
**A.** The value was 1.63.

**Q.** With U7C U10A U11C C12A as the variant, how does the “aptazyme ON/OFF ratio” value read?
**A.** The value was 1.12.

**Q.** With U7C U10A U11C C12G as the variant, how does the “aptazyme ON/OFF ratio” value read?
**A.** Its value is 1.25.

**Q.** Which “aptazyme ON/OFF ratio” value does the source give for U7C U10A U11C C12U here?
**A.** Its value is 1.03.

**Q.** Which “aptazyme ON/OFF ratio” value does the source give for U7C U8G U11C C12A C13G here?
**A.** The value was 1.15.

**Q.** Which “aptazyme ON/OFF ratio” value does the source give for U7C U8G U11C C12A C13A here?
**A.** The value was 1.28.

**Q.** Which “aptazyme ON/OFF ratio” value does the source give for U7C U8G U11C C12A C13U here?
**A.** The value was 1.34.

**Q.** With U7C U10C C12G as the variant, how does the “aptazyme ON/OFF ratio” value read?
**A.** Its value is 1.28.

**Q.** For U7C U10C C12U, which “aptazyme ON/OFF ratio” value is on record?
**A.** The value was 3.58.

**Q.** With U7C U10C C12A as the variant, how does the “aptazyme ON/OFF ratio” value read?
**A.** The value was 1.26.
